The target of the experiment is acetylcholine receptor (Homo sapiens, UniProt P02708). The experiment can be described thus: SPR binding affinity (RU) of optimized 5mer/6mer/7mer peptides, Examples 6-7. To be noted: SPR, peptides tested at 10 μM. The procedure:
Based on the frequencies of occurrence of the top 7 amino acids from Table 7 in Example 5, 600 peptides comprising these amino acids (top combinations) and those comprising the 13 less frequently occurring amino acids (bottom combinations) were synthesized for each series of 5mer, 6mer-1, and 6mer-2. The binding affinity of each sequence for the acetylcholine receptor was measured using Surface Plasmon Resonance (SPR) analysis method. The peptides were tested at a concentration of 10 μM. Additionally, the average binding affinities of the top and bottom combinations in each series are depicted in FIGS. 5-7.
Representative peptides identified in Example 6, two in each library, including 5mers (73, 311) and 6mers-1 (43, 210) and 6mers-2 (136, 233), were compared with the pre-optimized 6mer, 5mer-ND, and Synake.

[1] abbreviates: 5mer Top sequence (top combinations).

Results on 136 substances are retold here after US20250011363A1, “OPTIMIZED SHORTENED PEPTIDE THAT BINDS TO ACETYLCHOLINE RECEPTOR, AND USE THEREOF” (SKINMED CO., LTD., priority 2021, published 2025).

Sequence of acetylcholine receptor (P02708 21-457): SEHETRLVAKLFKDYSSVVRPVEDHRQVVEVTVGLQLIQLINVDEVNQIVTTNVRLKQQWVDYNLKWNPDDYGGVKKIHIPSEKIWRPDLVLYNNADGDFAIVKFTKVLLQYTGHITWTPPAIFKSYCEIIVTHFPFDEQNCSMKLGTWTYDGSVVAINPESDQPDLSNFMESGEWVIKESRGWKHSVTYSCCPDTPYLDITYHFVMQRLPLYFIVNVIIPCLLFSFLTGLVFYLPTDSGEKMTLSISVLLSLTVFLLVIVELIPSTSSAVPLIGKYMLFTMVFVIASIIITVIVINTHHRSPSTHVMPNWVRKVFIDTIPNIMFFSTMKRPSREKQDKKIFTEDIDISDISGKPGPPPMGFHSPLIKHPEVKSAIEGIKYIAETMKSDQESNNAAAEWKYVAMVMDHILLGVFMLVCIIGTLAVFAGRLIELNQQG

In the case of 5mer-277 (RVFTR), the Binding affinity under setting [1] is 82 Ru.
As to 5mer-278 (RWQRR), the Binding affinity under setting [1] is recorded as 66 Ru.
The same measure, in the same setting: with 5mer-279 (RVVTK) the figure was 56 Ru; with 5mer-280 (KWILK), 53 Ru.
With 5mer-281 (RGFLK), under setting [1], the Binding affinity was 58 Ru.
Still for that read-out and setting: with 5mer-282 (RVLTR) the figure was 77 Ru.
Same read-out and setting: with 5mer-283 (KWVYK) the figure was 51 Ru; with 5mer-284 (KQVQR), 52 Ru; with 5mer-285 (KGQLK), 75 Ru.
The same measure, in the same setting: with 5mer-286 (RWFQK) the figure was 71 Ru; with 5mer-287 (KRYRR), 68 Ru.
Turning to 5mer-288 (KLILK), under setting [1], the Binding affinity is reported as 73 Ru.
Still for that read-out and setting: in the case of 5mer-289 (RRQYR) it was 87 Ru.
Still for that read-out and setting: in the case of 5mer-290 (RGYYR) it was 57 Ru.
Same read-out and setting: with 5mer-291 (RWFTR) the figure was 72 Ru; with 5mer-292 (KLVCK), 59 Ru.
As for 5mer-293 (RQYYR), the Binding affinity under setting [1] is 83 Ru.
Still for that read-out and setting: with 5mer-294 (KQYYK) the figure was 50 Ru; with 5mer-295 (RGRCR), 52 Ru.
Turning to 5mer-296 (KWISK), the Binding affinity under setting [1] was found to be 55 Ru.
The same measure, in the same setting: with 5mer-297 (RSLRK) the figure was 81 Ru.
Still for that read-out and setting: in the case of 5mer-298 (KSIYR) it was 75 Ru; in that of 5mer-299 (KGRRK), 62 Ru; in that of 5mer-300 (RQYRK), 81 Ru.
As to 5mer-301 (KWIRK), the Binding affinity (5mer Top sequence) is 64 Ru.
The same measure, in the same setting: in the case of 5mer-302 (RRILK) it was 70 Ru.
Same read-out and setting: with 5mer-303 (KGRYR) the figure was 87 Ru; with 5mer-304 (RSVRK), 76 Ru; with 5mer-305 (KRICK), 72 Ru.
On the same count and under the same terms, with 5mer-306 (KSYYR) the figure was 74 Ru.
On to 5mer-307 (KQRCK), for which the Binding affinity (5mer Top sequence) is listed as 82 Ru.
Same read-out and setting: in the case of 5mer-308 (RLRCR) it was 84 Ru.
With 5mer-309 (KVQYR), where the note is “5mer Top sequence”, the Binding affinity amounted to 70 Ru.
On the same count and under the same terms, with 5mer-310 (KSRQR) the figure was 78 Ru.
The same measure, in the same setting: in the case of 5mer-312 (KRYCR) it was 81 Ru; in that of 5mer-313 (RSQLK), 75 Ru; in that of 5mer-314 (RWYTR), 80 Ru.
On the same count and under the same terms, in the case of 5mer-315 (KLFSR) it was 77 Ru; in that of 5mer-316 (KQYLR), 73 Ru; in that of 5mer-317 (RRVQR), 86 Ru.
On to 5mer-318 (KRVCK), for which the Binding affinity (5mer Top sequence) stood at 64 Ru.
As for 5mer-319 (RVQTR), the Binding affinity (5mer Top sequence) is recorded as 74 Ru.
The same measure, in the same setting: in the case of 5mer-320 (RVVQR) it was 75 Ru; in that of 5mer-321 (RSLSR), 68 Ru; in that of 5mer-322 (RRQSR), 84 Ru.
Consider 5mer-323 (KWYYR), for which the Binding affinity (5mer Top sequence) was found to be 77 Ru.
Still for that read-out and setting: with 5mer-324 (KSQRR) the figure was 58 Ru.
Turning to 5mer-325 (KRIQR), under “5mer Top sequence”, the Binding affinity is listed as 50 Ru.
On the same count and under the same terms, with 5mer-326 (RRFTK) the figure was 68 Ru; with 5mer-327 (RVLCR), 86 Ru; with 5mer-328 (RWVLK), 61 Ru.
The same measure, in the same setting: with 5mer-329 (RRFCR) the figure was 79 Ru.
In the case of 5mer-330 (RWQLR), under “5mer Top sequence”, the Binding affinity was determined as 86 Ru.
With 5mer-331 (RGIQR), the Binding affinity (5mer Top sequence) was 79 Ru.
Still for that read-out and setting: in the case of 5mer-332 (RRYCR) it was 85 Ru; in that of 5mer-333 (RVLQR), 67 Ru; in that of 5mer-334 (KRFYK), 64 Ru.
Same read-out and setting: in the case of 5mer-335 (KSLTR) it was 56 Ru; in that of 5mer-336 (KSVSR), 83 Ru.
Consider 5mer-337 (KGRSR), for which, under “5mer Top sequence”, the Binding affinity is 67 Ru.
Take 5mer-338 (RWILR): the Binding affinity (5mer Top sequence) was found to be 61 Ru.
For the substance 5mer-339 (KWVRK), the Binding affinity (5mer Top sequence) turned out to be 87 Ru.
Consider 5mer-340 (KGYRR), for which the Binding affinity (5mer Top sequence) is 51 Ru.
Same read-out and setting: with 5mer-341 (RWYRR) the figure was 52 Ru; with 5mer-342 (KVYQR), 69 Ru.
The same measure, in the same setting: with 5mer-343 (KSFSR) the figure was 60 Ru; with 5mer-344 (KQFQR), 52 Ru; with 5mer-345 (RQQRR), 86 Ru.
The same measure, in the same setting: with 5mer-346 (KGISK) the figure was 57 Ru; with 5mer-347 (KRICR), 78 Ru; with 5mer-348 (KRQTK), 80 Ru.
For the substance 5mer-349 (KQVYR), the Binding affinity (5mer Top sequence) came out at 50 Ru.
For the substance 5mer-350 (KSYYK), where the note is “5mer Top sequence”, the Binding affinity amounted to 59 Ru.
For the substance 5mer-351 (KSFSK), the Binding affinity (5mer Top sequence) amounted to 75 Ru.
Still for that read-out and setting: in the case of 5mer-352 (RLVRK) it was 76 Ru; in that of 5mer-353 (KSQLK), 59 Ru; in that of 5mer-354 (RSQTR), 64 Ru.
On the same count and under the same terms, with 5mer-355 (KLLYR) the figure was 87 Ru.
Same read-out and setting: in the case of 5mer-356 (KQVLR) it was 65 Ru.
As to 5mer-357 (RGFRK), the Binding affinity (5mer Top sequence) is 54 Ru.
As to 5mer-358 (KVRSK), the Binding affinity (5mer Top sequence) is reported as 50 Ru.
As to 5mer-359 (KRFQK), the Binding affinity (5mer Top sequence) is 79 Ru.
The same measure, in the same setting: in the case of 5mer-360 (RQLCK) it was 66 Ru.
Regarding 5mer-361 (RSYQR), the Binding affinity (5mer Top sequence) was 58 Ru.
Same read-out and setting: with 5mer-362 (KQRLK) the figure was 62 Ru; with 5mer-363 (KRVRK), 59 Ru.
On the same count and under the same terms, with 5mer-364 (RWITR) the figure was 62 Ru.
The same measure, in the same setting: with 5mer-365 (KRRYK) the figure was 52 Ru; with 5mer-366 (RQLQK), 52 Ru.
In the case of 5mer-367 (RSVQK), the Binding affinity (5mer Top sequence) amounted to 71 Ru.
Same read-out and setting: in the case of 5mer-368 (KRIRR) it was 50 Ru.
Regarding 5mer-369 (RGFTR), for the setting “5mer Top sequence”, the Binding affinity turned out to be 84 Ru.
The same measure, in the same setting: in the case of 5mer-370 (KWRRK) it was 67 Ru.
Regarding 5mer-371 (RGISK), the Binding affinity (5mer Top sequence) amounted to 86 Ru.
The same measure, in the same setting: in the case of 5mer-372 (RSVCR) it was 54 Ru.
Same read-out and setting: with 5mer-373 (KVFTK) the figure was 87 Ru.
Still for that read-out and setting: with 5mer-374 (KLFTR) the figure was 75 Ru.
Regarding 5mer-375 (KQLCR), the Binding affinity (5mer Top sequence) came out at 84 Ru.
The same measure, in the same setting: with 5mer-376 (KGQLR) the figure was 65 Ru.
Same read-out and setting: with 5mer-377 (KGFYK) the figure was 67 Ru; with 5mer-378 (RRLSK), 65 Ru.
For 5mer-379 (KSRLR), the Binding affinity (5mer Top sequence) stood at 79 Ru.
On the same count and under the same terms, with 5mer-380 (KRYLK) the figure was 82 Ru.
The same measure, in the same setting: in the case of 5mer-381 (KGQRR) it was 87 Ru; in that of 5mer-382 (RLRQR), 62 Ru; in that of 5mer-383 (RWQRK), 56 Ru.
Same read-out and setting: in the case of 5mer-384 (KSLRK) it was 75 Ru; in that of 5mer-385 (RGVYR), 51 Ru.
Consider 5mer-386 (RSFLK), for which the Binding affinity (5mer Top sequence) was determined as 78 Ru.
Regarding 5mer-387 (RRILR), the Binding affinity (5mer Top sequence) was 52 Ru.
Same read-out and setting: with 5mer-388 (KLFCK) the figure was 78 Ru.
For the substance 5mer-389 (KWRRR), where the note is “5mer Top sequence”, the Binding affinity amounted to 57 Ru.
Turning to 5mer-390 (KRFCR), the Binding affinity (5mer Top sequence) stood at 64 Ru.
The same measure, in the same setting: with 5mer-391 (KVFRR) the figure was 72 Ru; with 5mer-392 (RSRLR), 87 Ru; with 5mer-393 (KSLQR), 75 Ru.
On the same count and under the same terms, with 5mer-394 (KRRRK) the figure was 66 Ru; with 5mer-395 (RWVCK), 50 Ru; with 5mer-396 (KVVCR), 53 Ru.
Same read-out and setting: in the case of 5mer-397 (RRITK) it was 52 Ru.
In the case of 5mer-398 (KGQCR), where the note is “5mer Top sequence”, the Binding affinity amounted to 71 Ru.
5mer-399 (KWIQR): the Binding affinity (5mer Top sequence) came to 62 Ru.
5mer-400 (RWRCK): for the setting “5mer Top sequence”, the Binding affinity amounted to 70 Ru.
Turning to 5mer-401 (RGVLR), the Binding affinity (5mer Top sequence) came out at 52 Ru.
Still for that read-out and setting: in the case of 5mer-402 (RLRYR) it was 86 Ru; in that of 5mer-403 (RRLYK), 64 Ru; in that of 5mer-404 (KGYLK), 83 Ru.
Still for that read-out and setting: in the case of 5mer-405 (KSYTK) it was 68 Ru; in that of 5mer-406 (KVYLR), 84 Ru; in that of 5mer-407 (RQIYK), 58 Ru.
On the same count and under the same terms, with 5mer-408 (KVFRK) the figure was 74 Ru.
As for 5mer-409 (KQIYK), the Binding affinity (5mer Top sequence) is 62 Ru.
Same read-out and setting: in the case of 5mer-410 (RRFLR) it was 76 Ru; in that of 5mer-411 (KGRLR), 66 Ru; in that of 5mer-412 (RGRSR), 81 Ru.
As to 5mer-413 (RWLTR), the Binding affinity (5mer Top sequence) is listed as 56 Ru.
